{
  "source": "patent US20220332804A1",
  "about": "(CSL INNOVATION, published 2022)",
  "test_in_all_cases": "SPR, antibody captured, C2 as analyte;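 further: biacore at 37 °C, anti-C2 mAbs held by immobilised goat anti-human IgG, C2 alanine or serine mutants injected, double-referenced sensorgrams fitted to a 1:1 kinetic or steady-state model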",
  "key": {"human C2 N403A": {"biological_target": "T1, human C2 N403A (human, UniProt P06681 21-752)", "T1 sequence": "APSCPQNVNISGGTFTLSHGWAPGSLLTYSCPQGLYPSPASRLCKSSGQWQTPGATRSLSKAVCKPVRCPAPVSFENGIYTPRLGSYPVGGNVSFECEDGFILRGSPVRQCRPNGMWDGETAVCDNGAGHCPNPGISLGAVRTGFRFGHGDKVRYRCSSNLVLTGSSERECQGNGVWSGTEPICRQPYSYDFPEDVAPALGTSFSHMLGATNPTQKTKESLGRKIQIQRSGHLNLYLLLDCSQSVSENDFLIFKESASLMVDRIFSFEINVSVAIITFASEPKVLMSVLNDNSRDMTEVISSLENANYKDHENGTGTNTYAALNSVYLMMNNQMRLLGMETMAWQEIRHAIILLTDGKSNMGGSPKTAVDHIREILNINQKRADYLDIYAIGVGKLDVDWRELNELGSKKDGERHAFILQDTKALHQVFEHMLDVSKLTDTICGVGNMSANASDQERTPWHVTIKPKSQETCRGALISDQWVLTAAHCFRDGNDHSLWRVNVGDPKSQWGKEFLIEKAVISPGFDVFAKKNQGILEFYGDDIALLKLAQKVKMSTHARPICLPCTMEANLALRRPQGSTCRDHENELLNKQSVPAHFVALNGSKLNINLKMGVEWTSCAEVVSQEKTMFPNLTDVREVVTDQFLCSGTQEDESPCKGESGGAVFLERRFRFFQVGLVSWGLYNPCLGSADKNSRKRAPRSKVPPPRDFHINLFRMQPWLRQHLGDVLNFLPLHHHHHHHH"}, "human C2 K244A": {"biological_target": "T2, human C2 K244A (human, UniProt P06681 21-752)", "T2 sequence": "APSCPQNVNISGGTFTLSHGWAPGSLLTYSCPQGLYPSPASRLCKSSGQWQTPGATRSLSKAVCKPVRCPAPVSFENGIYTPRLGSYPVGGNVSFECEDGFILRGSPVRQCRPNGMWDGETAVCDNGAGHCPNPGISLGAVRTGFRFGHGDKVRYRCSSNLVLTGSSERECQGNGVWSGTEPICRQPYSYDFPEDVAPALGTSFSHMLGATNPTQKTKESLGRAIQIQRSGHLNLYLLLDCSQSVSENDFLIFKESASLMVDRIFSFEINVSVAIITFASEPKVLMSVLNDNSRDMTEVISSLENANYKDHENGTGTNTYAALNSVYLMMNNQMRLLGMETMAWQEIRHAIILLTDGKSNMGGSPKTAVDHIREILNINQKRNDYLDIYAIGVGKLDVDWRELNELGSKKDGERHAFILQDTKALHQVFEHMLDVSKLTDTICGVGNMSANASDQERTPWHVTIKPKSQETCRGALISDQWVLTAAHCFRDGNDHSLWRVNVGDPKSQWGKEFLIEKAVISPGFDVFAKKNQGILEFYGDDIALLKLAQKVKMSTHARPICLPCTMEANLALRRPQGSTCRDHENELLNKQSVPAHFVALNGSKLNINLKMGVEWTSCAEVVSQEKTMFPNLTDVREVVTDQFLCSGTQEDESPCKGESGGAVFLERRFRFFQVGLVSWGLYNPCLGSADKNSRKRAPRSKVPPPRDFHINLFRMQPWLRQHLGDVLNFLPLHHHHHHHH"}, "human C2 R434A": {"biological_target": "T3, human C2 R434A (human, UniProt P06681 21-752)", "T3 sequence": "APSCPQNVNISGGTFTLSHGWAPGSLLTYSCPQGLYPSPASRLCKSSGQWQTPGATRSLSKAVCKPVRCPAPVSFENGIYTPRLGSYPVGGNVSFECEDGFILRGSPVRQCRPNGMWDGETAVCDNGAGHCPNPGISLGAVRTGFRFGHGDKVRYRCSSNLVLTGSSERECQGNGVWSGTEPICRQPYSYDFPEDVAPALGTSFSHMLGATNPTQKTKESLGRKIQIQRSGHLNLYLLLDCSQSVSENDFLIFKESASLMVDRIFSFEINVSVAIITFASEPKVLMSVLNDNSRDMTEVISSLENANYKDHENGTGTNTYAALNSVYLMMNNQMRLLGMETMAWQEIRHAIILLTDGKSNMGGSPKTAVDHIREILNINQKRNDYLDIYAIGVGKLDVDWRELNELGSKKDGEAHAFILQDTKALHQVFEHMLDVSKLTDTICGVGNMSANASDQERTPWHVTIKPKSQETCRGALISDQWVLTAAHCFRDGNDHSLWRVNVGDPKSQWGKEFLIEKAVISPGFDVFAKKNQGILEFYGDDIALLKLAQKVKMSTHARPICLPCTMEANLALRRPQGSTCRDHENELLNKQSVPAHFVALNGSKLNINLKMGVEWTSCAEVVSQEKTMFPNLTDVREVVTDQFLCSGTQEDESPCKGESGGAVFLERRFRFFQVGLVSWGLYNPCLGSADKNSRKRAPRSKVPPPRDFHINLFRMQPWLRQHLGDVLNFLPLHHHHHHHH"}, "human C2 N471A": {"biological_target": "T4, human C2 N471A (human, UniProt P06681 21-752)", "T4 sequence": "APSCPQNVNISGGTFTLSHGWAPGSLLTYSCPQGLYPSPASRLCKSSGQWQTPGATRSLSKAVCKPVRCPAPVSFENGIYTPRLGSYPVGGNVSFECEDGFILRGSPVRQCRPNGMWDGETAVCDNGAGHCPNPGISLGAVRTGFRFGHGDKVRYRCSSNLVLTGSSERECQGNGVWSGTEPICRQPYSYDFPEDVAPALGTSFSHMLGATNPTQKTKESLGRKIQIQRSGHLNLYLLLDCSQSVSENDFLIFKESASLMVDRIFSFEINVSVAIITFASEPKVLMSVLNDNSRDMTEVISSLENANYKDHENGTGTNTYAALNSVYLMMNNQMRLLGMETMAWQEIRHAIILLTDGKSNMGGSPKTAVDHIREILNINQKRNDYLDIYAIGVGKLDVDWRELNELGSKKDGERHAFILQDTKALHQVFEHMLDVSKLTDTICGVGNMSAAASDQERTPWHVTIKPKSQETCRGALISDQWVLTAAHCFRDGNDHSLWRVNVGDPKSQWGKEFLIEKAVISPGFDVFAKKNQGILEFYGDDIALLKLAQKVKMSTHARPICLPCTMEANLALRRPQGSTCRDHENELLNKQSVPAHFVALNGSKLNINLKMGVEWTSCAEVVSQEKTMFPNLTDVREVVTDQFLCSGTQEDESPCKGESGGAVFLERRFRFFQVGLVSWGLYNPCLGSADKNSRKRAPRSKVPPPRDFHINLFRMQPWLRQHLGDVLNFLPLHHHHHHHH"}},
  "data": [
    {"binder": "RF16-242 (antibody, human IgG4 S228P, lambda, V domains shown, pH-dependent anti-C2 antibody from a phage display library) VH: EVQLLQSGAEVKKPGESLKISCKGSGYSFTSYWIGWVRQMPGKGLEWMGIIYPGDSDTRYSPSFQGQVTISADKSISTAYLQWSSLKASDTAMYYCARRGHYGDYFDYWGQGTLVTVSS VL: SYELTQPPSVSVSPGQTARITCSGDALPKKYAYWYHQKSGQAPVLVIYEDRRRPSEIPERFSGSSSGTMATLTITGAQVEDEGVYFCYSRDRAGNQRVFGGGTQLTVLG", "values": [
      {"measurement": "Kd", "setting": "human C2 N403A", "value": 8.2, "unit": "nM"},
      {"measurement": "Kd", "setting": "human C2 K244A", "value": 26.2, "unit": "nM"},
      {"measurement": "Kd", "setting": "human C2 R434A", "value": 98.9, "unit": "nM"},
      {"measurement": "Kd", "setting": "human C2 N471A", "value": 9.2, "unit": "nM"}
    ]}
  ]
}
